Assay results: article PMC4330388

Target: T1, PPR10 (Zea mays, UniProt B8Y6I0 96-786)
T1 sequence: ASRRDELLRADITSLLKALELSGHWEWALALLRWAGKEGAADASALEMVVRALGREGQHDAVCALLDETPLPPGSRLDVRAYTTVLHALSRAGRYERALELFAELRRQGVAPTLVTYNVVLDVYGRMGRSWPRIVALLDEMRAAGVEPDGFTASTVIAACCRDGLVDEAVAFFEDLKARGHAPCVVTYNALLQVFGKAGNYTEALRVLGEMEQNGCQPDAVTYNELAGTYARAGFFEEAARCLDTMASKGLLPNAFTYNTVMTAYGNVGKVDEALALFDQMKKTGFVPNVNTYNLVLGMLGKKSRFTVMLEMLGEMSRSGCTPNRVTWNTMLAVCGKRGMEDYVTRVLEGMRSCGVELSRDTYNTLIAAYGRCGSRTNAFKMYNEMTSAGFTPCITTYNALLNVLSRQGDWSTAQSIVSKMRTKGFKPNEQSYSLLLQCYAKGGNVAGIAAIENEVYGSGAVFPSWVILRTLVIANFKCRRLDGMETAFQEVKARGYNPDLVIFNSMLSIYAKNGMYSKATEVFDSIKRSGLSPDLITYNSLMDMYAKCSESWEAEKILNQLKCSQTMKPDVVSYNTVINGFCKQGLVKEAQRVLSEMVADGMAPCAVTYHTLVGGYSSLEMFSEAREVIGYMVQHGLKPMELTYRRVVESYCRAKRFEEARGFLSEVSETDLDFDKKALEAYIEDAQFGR
Assay: SEC-SAXS

**Q.** Does GUAUCCUUAACCAUUUC (ssRNA) [atpH RNA 17-mer] bind?
**A.** binds
